Measured values published in patent US20030013173A1.

Tests used:
[1] = target: soluble β4Gal-T2 (amino acid residues 31-372 of human UDP-galactose: β-N-acetylglucosamine β-1,4-galactosyltransferase, β4Gal-T2) (human) (UniProt O60909); experiment: cell-based or functional assay
[2] = target: Bovine milk β1,4Gal-transferase (Sigma), mainly representing β4Gal-T1 (bovine) (UniProt P08037); experiment: cell-based or functional assay
Chain of Bovine milk β1,4Gal-transferase (Sigma), mainly representing β4Gal-T1 (bovine) (P08037 78-402 limits assumed): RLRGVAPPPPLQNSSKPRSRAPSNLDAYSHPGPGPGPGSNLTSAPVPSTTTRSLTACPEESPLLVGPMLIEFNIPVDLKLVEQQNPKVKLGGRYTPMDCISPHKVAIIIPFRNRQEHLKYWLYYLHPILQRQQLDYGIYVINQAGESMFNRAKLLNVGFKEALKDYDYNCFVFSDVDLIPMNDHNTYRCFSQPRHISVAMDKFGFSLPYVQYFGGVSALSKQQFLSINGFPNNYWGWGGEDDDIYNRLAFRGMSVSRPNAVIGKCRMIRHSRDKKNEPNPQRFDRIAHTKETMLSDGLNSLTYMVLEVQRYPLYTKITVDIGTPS

Chain of soluble β4Gal-T2 (amino acid residues 31-372 of human UDP-galactose: β-N-acetylglucosamine β-1,4-galactosyltransferase, β4Gal-T2) (human) (O60909 31-372): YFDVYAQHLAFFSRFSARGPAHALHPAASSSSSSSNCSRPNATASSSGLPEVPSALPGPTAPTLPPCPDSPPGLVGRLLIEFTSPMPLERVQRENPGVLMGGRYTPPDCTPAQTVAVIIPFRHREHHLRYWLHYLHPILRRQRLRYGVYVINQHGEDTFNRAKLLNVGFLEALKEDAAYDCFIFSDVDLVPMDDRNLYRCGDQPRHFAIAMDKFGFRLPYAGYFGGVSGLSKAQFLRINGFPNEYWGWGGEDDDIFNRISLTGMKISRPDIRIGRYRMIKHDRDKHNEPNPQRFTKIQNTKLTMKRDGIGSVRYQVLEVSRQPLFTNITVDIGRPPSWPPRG

## α-lactalbumin
[1]
  concentration of a-lactalbumin to achieve maximum activity with Glc: 0.4 mg/mL
[2]
  concentration of a-lactalbumin to achieve maximum activity with Glc: 0.1 mg/mL
